The source of these data is patent publication US20190330374A1.

The target in experiment [1] is OX40 on activated T cells (PBMCs activated with Human T cell Activator Dynabeads) (human) (UniProt P43489). Kind of experiment: flow cytometry on activated PBMCs, CD8+ T cells with low OX40. For orientation: In flow cytometry, cells or beads pass a laser one at a time.
Experiment [2] has as its target OX40-Fc (R&D) (human) (UniProt P43489). Kind of experiment: ELISA, plate coated with 0.4 ng/mL OX40-Fc, anti-human kappa-HRP detection.
For experiment [3] the target is unchanged. Nature of the experiment: ELISA, plate coated with 1.6 ng/mL OX40-Fc, anti-human kappa-HRP detection.
Experiment [4] deals with OX40 on activated T cells (PBMCs activated with Human T cell Activator Dynabeads) (human) (UniProt P43489). Nature of the experiment: flow cytometry on activated PBMCs, CD4+ T cells with high OX40.

OX40-Fc (R&D) (human), sequence (P43489 29-216 limits assumed): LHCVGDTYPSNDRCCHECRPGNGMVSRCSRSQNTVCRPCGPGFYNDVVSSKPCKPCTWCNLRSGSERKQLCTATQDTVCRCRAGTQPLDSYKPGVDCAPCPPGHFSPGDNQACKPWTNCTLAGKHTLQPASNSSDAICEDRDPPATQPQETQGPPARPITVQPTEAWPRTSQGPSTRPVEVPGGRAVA
OX40 on activated T cells (PBMCs activated with Human T cell Activator Dynabeads) (human), sequence (P43489 29-277): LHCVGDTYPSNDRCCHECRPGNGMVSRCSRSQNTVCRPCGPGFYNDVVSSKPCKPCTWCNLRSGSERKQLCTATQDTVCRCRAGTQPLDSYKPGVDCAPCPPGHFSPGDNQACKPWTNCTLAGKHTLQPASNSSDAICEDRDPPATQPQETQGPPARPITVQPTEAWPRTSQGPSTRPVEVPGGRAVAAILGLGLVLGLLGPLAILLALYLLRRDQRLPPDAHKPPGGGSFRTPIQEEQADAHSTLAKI

B1: Anti-OX40 #1-IgM (antibody, V domains shown)
VH: QVQLQESGPGLVKPSQTLSLTCAVYGGSFSSGYWNWIRKHPGKGLEYIGYISYNGITYHNPSLKSRITINRDTSKNQYSLQLNSVTPEDTAVYYCARYKYDYDGGHAMDYWGQGTLVTVSS
VL: DIQMTQSPSSLSASVGDRVTITCRASQDISNYLNWYQQKPGKAPKLLIYYTSKLHSGVPSRFSGSGSGTDYTLTISSLQPEDFATYYCQQGSALPWTFGQGTKVEIK
As to B1, the fold better binding than Anti-OX40 #1-IgG (ratio of Kd, IgG to IgM) in experiment [1] turned out to be 25 fold; in experiment [4], 6 fold. Besides, the results for the fold better binding than Anti-OX40 #1-IgG (ratio of Bmax) with OX40-Fc (R&D) (human) [2] and with OX40-Fc (R&D) (human) [3] were 28 fold and 1.2 fold, respectively.
